Assay results taken from patent US12398178 (PARABILIS MEDICINES, dated 2025).
Positions of bridges follow the written chain, without caps; N, C: chain ends. No end group written: not given here. Linker 15a = not defined here; Linker 15b = not defined here; Linker 10 = not defined here; Linker 11 = not defined here; Linker 12 = not defined here; Linker 13 = not defined here; Linker 16 = not defined here; Linker 7 = not defined here

Target: T1, full-length β-Catenin (UniProt P35222 2-781, limits assumed)
T1 construct: mature; also called beta-catenin; beta-Catenin
T1 sequence (looked up): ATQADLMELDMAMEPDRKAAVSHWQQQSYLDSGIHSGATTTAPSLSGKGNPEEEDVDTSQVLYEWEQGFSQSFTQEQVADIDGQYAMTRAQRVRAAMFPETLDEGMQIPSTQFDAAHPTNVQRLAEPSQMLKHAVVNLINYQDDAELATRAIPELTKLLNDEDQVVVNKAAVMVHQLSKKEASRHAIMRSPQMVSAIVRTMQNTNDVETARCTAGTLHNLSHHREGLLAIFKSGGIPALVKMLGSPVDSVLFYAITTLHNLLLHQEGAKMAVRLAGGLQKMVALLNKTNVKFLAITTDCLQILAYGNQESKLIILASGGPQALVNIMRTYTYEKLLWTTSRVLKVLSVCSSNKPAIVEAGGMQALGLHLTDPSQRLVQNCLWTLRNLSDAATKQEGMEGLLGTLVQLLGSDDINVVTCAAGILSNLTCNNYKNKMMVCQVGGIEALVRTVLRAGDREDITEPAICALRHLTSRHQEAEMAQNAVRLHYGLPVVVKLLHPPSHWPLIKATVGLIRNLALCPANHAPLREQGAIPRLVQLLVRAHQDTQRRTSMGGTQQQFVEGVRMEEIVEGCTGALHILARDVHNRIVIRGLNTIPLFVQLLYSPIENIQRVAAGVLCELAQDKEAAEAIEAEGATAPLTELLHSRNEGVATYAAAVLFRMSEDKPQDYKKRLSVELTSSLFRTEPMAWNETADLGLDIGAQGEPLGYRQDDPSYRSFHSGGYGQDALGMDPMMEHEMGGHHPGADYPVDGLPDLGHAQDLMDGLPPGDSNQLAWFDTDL
Assay: competition fluorescence polarization vs FITC-Axin peptide probe on full-length beta-catenin
Protocol: Peptide assessment: In one assay for assessing binding to beta-catenin, peptide solutions were prepared in buffer (50 mM Tris pH 8.0, 250 mM NaCl, 2% glycerol, 0.5 mM EDTA, 0.02% w/v sodium azide) using a 3-fold serial dilution from 5 μM. Probe solution (15 nM full-length β-Catenin, 20 nM FITC labeled Axin peptide in buffer ([FAM-PEG1-RRWPR(S5)ILD(S5)HVRRVWR (SEQ ID NO: 44)] where the two S5 residues are stapled, as reported in: Proc Natl Acad Sci USA. 2012 Oct. 30; 109(44):17942-7)) was prepared and incubated for 5 minutes, then 40 μL per well plated in a black polystyrene 384-well plate (Corning). Equal volume of the titrated peptide was added to the plate and incubated protected from light for 15 minutes prior to read. Reads were performed on a Spectramax M5 (Molecular Devices) in duplicate.

B1: Peptide ID 10, ADPAQWHCEHAALICELD, staple type Linker 7 (peptide)
peptide: ADPAQWHCEHAALICELD
modifications: linker 8-15 via Linker 7 (inferred); reading uncertain
notes: synthetic cysteine-stapled peptide
- EC50: 0.417 µM

B2: Peptide ID 11, ADPAPWQCEHAALLCELE, staple type Linker 7 (peptide)
peptide: ADPAPWQCEHAALLCELE
modifications: linker 8-15 via Linker 7 (inferred); reading uncertain
notes: as for B1
- EC50: 0.922 µM

B3: Peptide ID 12, ADPADWECEHAALICDAM, staple type Linker 7 (peptide)
peptide: ADPADWECEHAALICDAM
modifications: linker 8-15 via Linker 7 (inferred); reading uncertain
notes: as for B1
- EC50: 0.815 µM

B4: Peptide ID 13, ADPAYWLCEHAALICEVE, staple type Linker 7 (peptide)
peptide: ADPAYWLCEHAALICEVE
modifications: linker 8-15 via Linker 7 (inferred); reading uncertain
notes: as for B1
- EC50: 0.456 µM

B5: Peptide ID 14, ADPAQWPCEHAALLCEIE, staple type Linker 7 (peptide)
peptide: ADPAQWPCEHAALLCEIE
modifications: linker 8-15 via Linker 7 (inferred); reading uncertain
notes: as for B1
- EC50: 0.404 µM

B6: Peptide ID 1, ADPATHRCEWAALHCELV, staple type Linker 7 (peptide)
peptide: ADPATHRCEWAALHCELV
modifications: linker 8-15 via Linker 7 (inferred); reading uncertain
notes: as for B1
- EC50: 5.2 µM

B7: Peptide ID 2, ADPALWACEHAALICETQ, staple type Linker 7 (peptide)
peptide: ADPALWACEHAALICETQ
modifications: linker 8-15 via Linker 7 (inferred); reading uncertain
notes: as for B1
- EC50: 2.8 µM

B8: Peptide ID 32, ADPATHRCEWAALHCELV, staple type Linker 11 (peptide)
peptide: ADPATHRCEWAALHCELV
modifications: linker 8-15 via Linker 11 (inferred); reading uncertain
notes: as for B1
- EC50: 5.17 µM

B9: Peptide ID 33, ADPATHRCEWAALHCELV, staple type Linker 12 (peptide)
peptide: ADPATHRCEWAALHCELV
modifications: linker 8-15 via Linker 12 (inferred); reading uncertain
notes: as for B1
- EC50: 5.35 µM

B10: Peptide ID 34, ADPATHRCEWAALHCELV, staple type Linker 13 (peptide)
peptide: ADPATHRCEWAALHCELV
modifications: linker 8-15 via Linker 13 (inferred); reading uncertain
notes: as for B1
- EC50: 4.32 µM

B11: Peptide ID 4, ADPALADCILAAHMCQLW, staple type Linker 7 (peptide)
peptide: ADPALADCILAAHMCQLW
modifications: linker 8-15 via Linker 7 (inferred); reading uncertain
notes: as for B1
- EC50: 5.52 µM

B12: Peptide ID 40, ADPALWACEHAALICETQ, staple type Linker 10 (peptide)
peptide: ADPALWACEHAALICETQ
modifications: linker 8-15 via Linker 10 (inferred); reading uncertain
notes: as for B1
- EC50: 9.55 µM

B13: Peptide ID 41, ADPALWACEHAALICETQ, staple type Linker 11 (peptide)
peptide: ADPALWACEHAALICETQ
modifications: linker 8-15 via Linker 11 (inferred); reading uncertain
notes: as for B1
- EC50: 3.02 µM

B14: Peptide ID 42, ADPALWACEHAALICETQ, staple type Linker 12 (peptide)
peptide: ADPALWACEHAALICETQ
modifications: linker 8-15 via Linker 12 (inferred); reading uncertain
notes: as for B1
- EC50: 4.52 µM

B15: Peptide ID 43, ADPALWACEHAALICETQ, staple type Linker 13 (peptide)
peptide: ADPALWACEHAALICETQ
modifications: linker 8-15 via Linker 13 (inferred); reading uncertain
notes: as for B1
- EC50: 4.59 µM

B16: Peptide ID 44, ADPALWACEHAALICETQ, staple type Linker 15a (peptide)
peptide: ADPALWACEHAALICETQ
modifications: linker 8-15 via Linker 15a (inferred); reading uncertain
notes: as for B1
- EC50: 7.33 µM

B17: Peptide ID 45, ADPALWACEHAALICETQ, staple type Linker 15b (peptide)
peptide: ADPALWACEHAALICETQ
modifications: linker 8-15 via Linker 15b (inferred); reading uncertain
notes: as for B1
- EC50: 5.57 µM

B18: Peptide ID 46, ADPALWACEHAALICETQ, staple type Linker 16 (peptide)
peptide: ADPALWACEHAALICETQ
modifications: linker 8-15 via Linker 16 (inferred); reading uncertain
notes: as for B1
- EC50: 5.82 µM

B19: Peptide ID 5, ADPAHAECVLDYHICQIW, staple type Linker 7 (peptide)
peptide: ADPAHAECVLDYHICQIW
modifications: linker 8-15 via Linker 7 (inferred); reading uncertain
notes: as for B1
- EC50: 0.117 µM

B20: Peptide ID 6, ADPAQDHCILDTHICRIW, staple type Linker 7 (peptide)
peptide: ADPAQDHCILDTHICRIW
modifications: linker 8-15 via Linker 7 (inferred); reading uncertain
notes: as for B1
- EC50: 0.047 µM

B21: Peptide ID 7, ADPAEDECILNNHICRIW, staple type Linker 7 (peptide)
peptide: ADPAEDECILNNHICRIW
modifications: linker 8-15 via Linker 7 (inferred); reading uncertain
notes: as for B1
- EC50: 0.014 µM

B22: Peptide ID 8, ADPAEDECILAAHMCRWW, staple type Linker 7 (peptide)
peptide: ADPAEDECILAAHMCRWW
modifications: linker 8-15 via Linker 7 (inferred); reading uncertain
notes: as for B1
- EC50: 0.255 µM
